The values below come from article PMC9894248, “Alanine synthesized by alanine dehydrogenase enables ammonium-tolerant nitrogen fixation in Paenibacillus sabinae T27”.

Data set [1] deals with T1, GlnR (Paenibacillus sabinae T27, UniProt X4ZZY3 1-136).
T1 sequence: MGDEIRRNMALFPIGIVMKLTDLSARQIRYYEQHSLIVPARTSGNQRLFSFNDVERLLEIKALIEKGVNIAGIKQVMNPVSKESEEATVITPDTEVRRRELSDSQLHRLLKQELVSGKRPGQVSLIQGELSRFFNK
Kind of data set: EMSA; GlnR 4-1024 nM; EMSA: 20 ul, 1 ug poly[d(A-T)], 0.3 nM probe, 30 min, 25 C; binding buffer (given for protein dialysis) 20 mM HEPES pH 7.6, 1 mM EDTA, 10 mM (NH4)2SO4, 1 mM DTT, 0.2% Tween 20, 30 mM KCl. SPR: SA chip, 250 RU DNA, GlnR 0-500 nM with or without 25 nM GS. Conditions: protein: recombinant; tags: N-His6; chain copies: 2; label: 3' DIG (Methods); blunt. (A gel shift assay detects complexes by their altered migration in electrophoresis.)

Data set [2] concerns the target T1, GlnR. In words: SPR; GlnR alone, 0-500 nM; affinity significantly higher than site II; EMSA: 20 ul, 1 ug poly[d(A-T)], 0.3 nM probe, 30 min, 25 C; binding buffer (given for protein dialysis) 20 mM HEPES pH 7.6, 1 mM EDTA, 10 mM (NH4)2SO4, 1 mM DTT, 0.2% Tween 20, 30 mM KCl. SPR: SA chip, 250 RU DNA, GlnR 0-500 nM with or without 25 nM GS. To be noted: protein: recombinant; tags: N-His6; chain copies: 2; label: 5' biotin on capture linker S3; 3' overhang 20 nt on strand 2, annealed to capture linker (strand 3). In general terms: Surface plasmon resonance follows binding to a sensor surface in real time, without labels.

Data set [3] has as its target T2, AdeR (Paenibacillus sabinae T27, UniProt X4ZCB7 1-417).
T2 sequence: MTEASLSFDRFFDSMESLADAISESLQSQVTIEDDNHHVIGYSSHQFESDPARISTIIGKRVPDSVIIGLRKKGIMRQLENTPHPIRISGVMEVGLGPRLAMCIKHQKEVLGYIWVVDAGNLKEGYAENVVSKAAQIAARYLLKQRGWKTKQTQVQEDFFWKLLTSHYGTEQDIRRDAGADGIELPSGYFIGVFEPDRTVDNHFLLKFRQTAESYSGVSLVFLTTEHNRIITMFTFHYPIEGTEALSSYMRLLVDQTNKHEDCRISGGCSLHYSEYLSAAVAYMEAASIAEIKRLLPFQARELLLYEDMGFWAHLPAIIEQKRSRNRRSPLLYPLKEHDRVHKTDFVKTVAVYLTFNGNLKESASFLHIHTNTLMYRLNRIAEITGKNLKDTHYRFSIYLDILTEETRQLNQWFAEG
In words: EMSA; AdeR 100-600 nM; legend misprints 'mutated GlnR-binding site'; EMSA: 20 ul, 1 ug poly[d(A-T)], 0.3 nM probe, 30 min, 25 C; binding buffer (given for protein dialysis) 20 mM HEPES pH 7.6, 1 mM EDTA, 10 mM (NH4)2SO4, 1 mM DTT, 0.2% Tween 20, 30 mM KCl. SPR: SA chip, 250 RU DNA, GlnR 0-500 nM with or without 25 nM GS. Conditions: protein: recombinant; tags: N-His6; label: 3' DIG (Methods); blunt.

The target in data set [4] is T2, AdeR. Kind of data set: EMSA; AdeR 100-600 nM; EMSA: 20 ul, 1 ug poly[d(A-T)], 0.3 nM probe, 30 min, 25 C; binding buffer (given for protein dialysis) 20 mM HEPES pH 7.6, 1 mM EDTA, 10 mM (NH4)2SO4, 1 mM DTT, 0.2% Tween 20, 30 mM KCl. SPR: SA chip, 250 RU DNA, GlnR 0-500 nM with or without 25 nM GS. Conditions: protein: recombinant; tags: N-His6; label: 3' DIG (Methods); blunt.

B1: nif promoter GlnR site I EMSA probe (nifR1) (dsDNA)
DNA 1: AACGGAAACATGATACATATGTGTAATGTAATCTGACATTTGT
DNA 2: ACAAATGTCAGATTACATTACACATATGTATCATGTTTCCGTT
On to B1, for which the binding result with GlnR [1] is given as “binds”.

B2: SPR probe GlnR site I (TS1) (dsDNA)
DNA 1: ATACATATGTGTAATGTAATCTGACATTTGTTTTGACGA
DNA 2: TCGTCAAAACAAATGTCAGATTACATTACACATATGTATCCTACCCTACGTCCTCCTGC
DNA 3: GCAGGAGGACGTAGGGTAGG
For the molecule B2, in the data set with GlnR [2], the binding result is “binds”.

B3: ald1 promoter 40-bp mutated AdeR site (aldP1M) (dsDNA)
DNA 1: GAATGAAAAACTGACCTTGGATCCGTGATAAAACACAATC
DNA 2: GATTGTGTTTTATCACGGATCCAAGGTCAGTTTTTCATTC
For the molecule B3, the binding result in the data set with AdeR [3] is on record as “no binding”.

B4: ald1 promoter 40-bp AdeR site (aldP1) (dsDNA)
DNA 1: GAATGAAAAACTGACCTTCTCATTGTGATAAAACACAATC
DNA 2: GATTGTGTTTTATCACAATGAGAAGGTCAGTTTTTCATTC
As for B4, the binding result in the data set with AdeR [4] is recorded as “binds”.

B5: nif promoter GlnR site II EMSA probe (nifR2) (dsDNA)
DNA 1: TTTTCAAGAAAGGTTGGAGTCAGGTTAACTGACACGTCGGATG
DNA 2: CATCCGACGTGTCAGTTAACCTGACTCCAACCTTTCTTGAAAA
As to B5, in the data set with GlnR [1], the binding result is given as “binds”.
